IntAct's records for PubMed 20168298

B1: Polycystin-2 (Homo sapiens), Q13563 (parent)
chain: MVNSSRVQPQQPGDAKRPPAPRAPDPGRLMAGCAAVGASLAAPGGLCEQRGLEIEMQRIRQAAARDPPAGAAASPSPPLSSCSRQAWSRDNPGFEAEEEEEEVEGEEGGMVVEMDVEWRPGSRRSAASSAVSSVGARSRGLGGYHGAGHPSGRRRRREDQGPPCPSPVGGGDPLHRHLPLEGQPPRVAWAERLVRGLRGLWGTRLMEESSTNREKYLKSVLRELVTYLLFLIVLCILTYGMMSSNVYYYTRMMSQLFLDTPVSKTEKTNFKTLSSMEDFWKFTEGSLLDGLYWKMQPSNQTEADNRSFIFYENLLLGVPRIRQLRVRNGSCSIPQDLRDEIKECYDVYSVSSEDRAPFGPRNGTAWIYTSEKDLNGSSHWGIIATYSGAGYYLDLSRTREETAAQVASLKKNVWLDRGTRATFIDFSVYNANINLFCVVRLLVEFPATGGVIPSWQFQPLKLIRYVTTFDFFLAACEIIFCFFIFYYVVEEILEIRIHKLHYFRSFWNCLDVVIVVLSVVAIGINIYRTSNVEVLLQFLEDQNTFPNFEHLAYWQIQFNNIAAVTVFFVWIKLFKFINFNRTMSQLSTTMSRCAKDLFGFAIMFFIIFLAYAQLAYLVFGTQVDDFSTFQECIFTQFRIILGDINFAEIEEANRVLGPIYFTTFVFFMFFILLNMFLAIINDTYSEVKSDLAQQKAEMELSDLIRKGYHKALVKLKLKKNTVDDISESLRQGGGKLNFDELRQDLKGKGHTDAEIEAIFTKYDQDGDQELTEHEHQQMRDDLEKEREDLDLDHSSLPRPMSSRSFPRSLDDSEEDDDEDSGHSSRRRGSISSGVSYEEFQVLVRRVDRMEHSIGSIVSKIDAVIVKLEIMERAKLKRREVLGRLLDGVAEDERLGRDSEIHREQMERLVREELERWESDDAASQISHGLGTPVGLNGQPRPRSSRPSSSQSTEGMEGAGGNGSSNVHV

Variants of: B1
Conditions: with pkd1_human PKD1, P98161
pkd1_human PKD1, P98161, sequence (P98161 whole entry, looked up): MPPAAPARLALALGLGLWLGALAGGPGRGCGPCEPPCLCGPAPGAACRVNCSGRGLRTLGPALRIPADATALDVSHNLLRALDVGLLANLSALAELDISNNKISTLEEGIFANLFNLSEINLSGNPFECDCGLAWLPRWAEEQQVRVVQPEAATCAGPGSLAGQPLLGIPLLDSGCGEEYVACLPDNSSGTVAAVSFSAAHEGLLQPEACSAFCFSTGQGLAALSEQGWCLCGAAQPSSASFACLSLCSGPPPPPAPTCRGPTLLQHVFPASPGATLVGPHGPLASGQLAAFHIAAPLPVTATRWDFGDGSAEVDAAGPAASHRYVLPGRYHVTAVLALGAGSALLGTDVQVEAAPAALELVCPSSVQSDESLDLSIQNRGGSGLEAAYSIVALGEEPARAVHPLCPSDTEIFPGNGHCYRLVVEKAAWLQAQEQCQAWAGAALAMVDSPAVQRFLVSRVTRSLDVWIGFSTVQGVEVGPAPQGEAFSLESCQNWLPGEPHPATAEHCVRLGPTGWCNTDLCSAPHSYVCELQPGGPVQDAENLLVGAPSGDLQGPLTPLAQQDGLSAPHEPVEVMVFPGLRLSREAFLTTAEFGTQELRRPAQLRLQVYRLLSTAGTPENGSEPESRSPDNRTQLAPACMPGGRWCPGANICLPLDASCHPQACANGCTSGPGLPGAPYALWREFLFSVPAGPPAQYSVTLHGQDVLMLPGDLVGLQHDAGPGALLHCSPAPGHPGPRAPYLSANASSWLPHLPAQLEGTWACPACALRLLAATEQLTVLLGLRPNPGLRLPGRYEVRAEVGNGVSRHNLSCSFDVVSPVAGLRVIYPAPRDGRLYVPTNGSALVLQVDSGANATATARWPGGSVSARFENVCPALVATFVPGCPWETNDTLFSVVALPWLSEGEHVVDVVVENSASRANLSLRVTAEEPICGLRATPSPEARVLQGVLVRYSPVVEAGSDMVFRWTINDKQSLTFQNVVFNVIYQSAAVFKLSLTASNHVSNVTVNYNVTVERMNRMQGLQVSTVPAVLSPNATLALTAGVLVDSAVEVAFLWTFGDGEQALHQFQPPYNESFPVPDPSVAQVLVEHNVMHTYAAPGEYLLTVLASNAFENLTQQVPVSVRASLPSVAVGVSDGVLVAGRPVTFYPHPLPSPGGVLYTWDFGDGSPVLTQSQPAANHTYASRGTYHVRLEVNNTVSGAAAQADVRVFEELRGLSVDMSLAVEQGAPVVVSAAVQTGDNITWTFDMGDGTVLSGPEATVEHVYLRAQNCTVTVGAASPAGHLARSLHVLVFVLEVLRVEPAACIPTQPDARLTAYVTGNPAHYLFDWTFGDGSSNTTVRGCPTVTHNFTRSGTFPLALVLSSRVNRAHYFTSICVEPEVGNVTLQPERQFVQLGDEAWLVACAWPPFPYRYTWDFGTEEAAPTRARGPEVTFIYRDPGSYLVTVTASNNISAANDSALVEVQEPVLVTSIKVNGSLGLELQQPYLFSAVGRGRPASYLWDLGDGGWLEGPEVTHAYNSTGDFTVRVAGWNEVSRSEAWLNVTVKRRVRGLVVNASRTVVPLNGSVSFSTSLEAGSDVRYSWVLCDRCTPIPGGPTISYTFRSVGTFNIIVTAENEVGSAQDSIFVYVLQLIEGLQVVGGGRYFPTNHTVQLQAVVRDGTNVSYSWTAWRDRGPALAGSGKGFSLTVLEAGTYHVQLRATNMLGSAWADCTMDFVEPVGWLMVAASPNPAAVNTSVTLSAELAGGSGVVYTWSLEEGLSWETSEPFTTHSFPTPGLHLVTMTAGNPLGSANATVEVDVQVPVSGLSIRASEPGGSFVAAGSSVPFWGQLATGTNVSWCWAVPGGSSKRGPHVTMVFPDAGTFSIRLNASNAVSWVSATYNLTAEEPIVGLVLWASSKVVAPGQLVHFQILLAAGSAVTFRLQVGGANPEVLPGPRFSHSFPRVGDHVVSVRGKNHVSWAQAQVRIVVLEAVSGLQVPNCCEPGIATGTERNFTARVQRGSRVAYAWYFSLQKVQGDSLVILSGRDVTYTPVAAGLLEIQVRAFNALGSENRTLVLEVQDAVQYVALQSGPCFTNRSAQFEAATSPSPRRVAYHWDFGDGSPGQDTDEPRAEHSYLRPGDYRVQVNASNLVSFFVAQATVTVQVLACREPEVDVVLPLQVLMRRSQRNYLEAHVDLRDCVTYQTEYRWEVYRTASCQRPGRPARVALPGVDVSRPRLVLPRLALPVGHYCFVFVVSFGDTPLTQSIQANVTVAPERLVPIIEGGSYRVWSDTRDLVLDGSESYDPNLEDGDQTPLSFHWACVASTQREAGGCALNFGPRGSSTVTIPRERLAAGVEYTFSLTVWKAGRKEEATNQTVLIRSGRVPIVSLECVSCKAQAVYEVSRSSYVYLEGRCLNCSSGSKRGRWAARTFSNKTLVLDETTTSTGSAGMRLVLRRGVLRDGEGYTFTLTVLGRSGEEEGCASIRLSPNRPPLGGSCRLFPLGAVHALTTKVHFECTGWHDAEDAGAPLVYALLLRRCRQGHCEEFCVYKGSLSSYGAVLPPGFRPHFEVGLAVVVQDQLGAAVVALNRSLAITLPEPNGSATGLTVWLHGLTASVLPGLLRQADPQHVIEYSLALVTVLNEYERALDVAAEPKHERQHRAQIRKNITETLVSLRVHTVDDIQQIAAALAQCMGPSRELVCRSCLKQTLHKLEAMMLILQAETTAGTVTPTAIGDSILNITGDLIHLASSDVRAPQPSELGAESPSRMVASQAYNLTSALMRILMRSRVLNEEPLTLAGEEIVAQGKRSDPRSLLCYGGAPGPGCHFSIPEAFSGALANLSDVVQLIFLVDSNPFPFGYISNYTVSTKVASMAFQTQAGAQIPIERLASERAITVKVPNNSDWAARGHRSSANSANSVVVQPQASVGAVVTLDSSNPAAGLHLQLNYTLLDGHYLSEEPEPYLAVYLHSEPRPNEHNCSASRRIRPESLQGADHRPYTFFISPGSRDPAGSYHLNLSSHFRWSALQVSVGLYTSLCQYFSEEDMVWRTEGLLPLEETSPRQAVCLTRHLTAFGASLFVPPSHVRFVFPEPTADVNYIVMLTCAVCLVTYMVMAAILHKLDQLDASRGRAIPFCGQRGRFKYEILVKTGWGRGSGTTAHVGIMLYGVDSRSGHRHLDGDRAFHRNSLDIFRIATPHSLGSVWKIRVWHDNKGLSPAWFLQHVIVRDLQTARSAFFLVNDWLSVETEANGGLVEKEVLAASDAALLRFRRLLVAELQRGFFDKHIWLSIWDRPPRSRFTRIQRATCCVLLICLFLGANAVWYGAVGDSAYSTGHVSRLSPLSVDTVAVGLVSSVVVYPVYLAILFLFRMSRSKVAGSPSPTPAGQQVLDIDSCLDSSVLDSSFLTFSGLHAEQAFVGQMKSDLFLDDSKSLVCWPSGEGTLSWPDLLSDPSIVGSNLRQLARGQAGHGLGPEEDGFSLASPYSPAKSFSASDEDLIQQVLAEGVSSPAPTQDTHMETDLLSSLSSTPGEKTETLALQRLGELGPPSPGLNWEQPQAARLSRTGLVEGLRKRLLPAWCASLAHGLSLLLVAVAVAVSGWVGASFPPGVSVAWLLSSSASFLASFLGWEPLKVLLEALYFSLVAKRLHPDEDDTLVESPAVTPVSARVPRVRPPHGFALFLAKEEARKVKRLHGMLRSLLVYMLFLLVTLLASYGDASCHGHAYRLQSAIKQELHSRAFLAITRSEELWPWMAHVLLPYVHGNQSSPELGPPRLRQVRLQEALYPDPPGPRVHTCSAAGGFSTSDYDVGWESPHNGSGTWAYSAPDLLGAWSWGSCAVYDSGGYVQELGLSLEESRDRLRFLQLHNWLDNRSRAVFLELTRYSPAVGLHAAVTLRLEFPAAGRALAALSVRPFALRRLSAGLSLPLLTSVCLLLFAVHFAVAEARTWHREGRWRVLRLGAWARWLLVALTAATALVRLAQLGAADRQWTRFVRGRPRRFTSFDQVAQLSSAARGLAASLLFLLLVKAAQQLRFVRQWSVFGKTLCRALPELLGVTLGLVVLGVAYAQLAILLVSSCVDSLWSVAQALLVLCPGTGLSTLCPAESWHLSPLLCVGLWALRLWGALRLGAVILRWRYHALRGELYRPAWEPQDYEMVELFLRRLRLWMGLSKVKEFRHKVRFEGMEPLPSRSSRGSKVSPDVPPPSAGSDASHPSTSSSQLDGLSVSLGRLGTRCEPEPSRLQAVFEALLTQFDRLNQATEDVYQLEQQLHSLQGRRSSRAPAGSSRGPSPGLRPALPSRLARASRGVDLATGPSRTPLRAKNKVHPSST

Variant | effect of a mutation on the interaction
V846A | disrupting interaction
I853A | disrupting interaction
L867A | disrupting interaction
I860A | disrupting interaction
